In patent publication US20100291074:

How the values were obtained:
[1] = biological target: Aβ (amyloid beta peptide, length and aggregation state not specified; ˜4 kDa band) (UniProt P05067)
[2] = biological target: Aβ42 (aggregation state not stated at the place of use) (UniProt P05067)
Sequence of Aβ42 (aggregation state not stated at the place of use) (P05067 whole entry, looked up): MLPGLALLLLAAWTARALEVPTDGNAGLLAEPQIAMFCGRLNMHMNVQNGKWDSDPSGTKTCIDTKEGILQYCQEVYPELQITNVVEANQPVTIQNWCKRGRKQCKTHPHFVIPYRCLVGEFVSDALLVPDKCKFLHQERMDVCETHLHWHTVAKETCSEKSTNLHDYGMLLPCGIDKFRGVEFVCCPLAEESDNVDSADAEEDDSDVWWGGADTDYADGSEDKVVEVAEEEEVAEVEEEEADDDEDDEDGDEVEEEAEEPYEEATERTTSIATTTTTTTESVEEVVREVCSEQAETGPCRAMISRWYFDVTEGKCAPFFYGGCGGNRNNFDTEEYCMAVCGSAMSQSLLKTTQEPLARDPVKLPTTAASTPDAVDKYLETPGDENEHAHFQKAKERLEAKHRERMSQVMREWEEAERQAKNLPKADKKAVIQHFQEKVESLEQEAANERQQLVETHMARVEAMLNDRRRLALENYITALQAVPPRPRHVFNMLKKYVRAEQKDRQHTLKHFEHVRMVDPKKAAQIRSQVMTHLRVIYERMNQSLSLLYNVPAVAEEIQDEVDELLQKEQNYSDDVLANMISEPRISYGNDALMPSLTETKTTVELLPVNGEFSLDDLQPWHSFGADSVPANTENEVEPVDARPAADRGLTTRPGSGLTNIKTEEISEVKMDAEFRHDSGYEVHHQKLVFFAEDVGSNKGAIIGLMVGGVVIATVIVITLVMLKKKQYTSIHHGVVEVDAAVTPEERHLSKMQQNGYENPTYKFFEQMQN

Sequence of mouse CypD, endogenous, in brain mitochondria and cultured cortical neurons of nonTg and Tg mAPP mice (chain, as listed by the source): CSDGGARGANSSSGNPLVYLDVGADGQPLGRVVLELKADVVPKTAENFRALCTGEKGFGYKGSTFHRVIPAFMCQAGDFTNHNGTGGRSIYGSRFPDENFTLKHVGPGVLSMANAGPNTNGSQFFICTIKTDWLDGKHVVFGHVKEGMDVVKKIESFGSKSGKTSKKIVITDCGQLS
Sequence of Aβ (amyloid beta peptide, length and aggregation state not specified; ˜4 kDa band) (P05067 whole entry, looked up, tested part not stated): as the sequence (P05067 whole entry, looked up) above

Q: Which “cytochrome c release into the supernatant from isolated mitochondria treated with Aβ” value [1] does the source give for “mouse CypD, endogenous, in brain mitochondria and cultured cortical neurons of nonTg and Tg mAPP mice” here?
A: The value was “increased levels of cytochrome c release into the supernatant in nonTg-derived mitochondria treated with Aβ”.

Q: And the “Aβ-mediated swelling of isolated cortical mitochondria, diminished in mitochondria lacking CypD, Aβ 1.6 µM” value [2]?
A: The value was “˜60%”.
